Drawing on publication PMC6160412 (2018), this text covers Kd for two molecules.

By Kd is commonly meant the constant that tells how readily two partners part at equilibrium.

Common to all, as to assay: SPR
A general note: SPR reads the build-up and loss of mass on a sensor chip optically.

For one experiment, the target named is Neurexin-1β (+S4) (Mus musculus, UniProt P0DI97).
For experiment [1], the target named is human LRRTM2 LRR domain, D352A mutant (human, UniProt O43300 34-371, D352A).
The target of experiment [2] is human LRRTM2 LRR domain, F357Y mutant (human, UniProt O43300 34-371, F357Y).

Neurexin-1β (+S4), sequence (P0DI97 47-392): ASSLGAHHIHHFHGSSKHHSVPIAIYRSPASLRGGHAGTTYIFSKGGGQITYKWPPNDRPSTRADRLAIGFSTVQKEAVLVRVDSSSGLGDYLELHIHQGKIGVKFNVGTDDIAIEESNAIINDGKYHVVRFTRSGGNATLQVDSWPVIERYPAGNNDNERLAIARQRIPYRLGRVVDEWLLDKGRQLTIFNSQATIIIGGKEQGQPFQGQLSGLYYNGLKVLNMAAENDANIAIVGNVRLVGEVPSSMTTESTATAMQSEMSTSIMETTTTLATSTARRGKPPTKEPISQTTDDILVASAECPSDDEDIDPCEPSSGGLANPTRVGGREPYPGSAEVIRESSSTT

B1: LRRTM2 (protein)
chain: CPPKCRCEKLLFYCDSQGFHSVPNATDKGSLGLSLRHNHITALERDQFASFSQLTWLHLDHNQISTVKEDAFQGLYKLKELILSSNKIFYLPNTTFTQLINLQNLDLSFNQLSSLHPELFYGLRKLQTLHLRSNSLRTIPVRLFWDCRSLEFLDLSTNRLRSLARNGFAGLIKLRELHLEHNQLTKINFAHFLRLSSLHTLFLQWNKISNLTCGMDWTWSTLEKLDLTGNEIKAIDLTVFETMPNLKILLMDNNKLNSLDSKILNSLKSLTTVGLSGNLWECSPRVCALASWLGSFQGRWEHSILCHSPDHTQGEDILDAVHGFQLCWNLSTTVTAMATTYRDPTTEYTKISSSSYHVGDKEIPTTAGIAVTTEEHFPEPDNAIFTQRVITGTMALLFSFFFIIFIVFISRKCCPPTLRRIRQCSMIQNHRQLRSQTRLHMSNMSDQGPYNEYEPTHEGPFIIINGYGQCKCQQLPYKECEV
In the experiment with Neurexin-1β (+S4), B1 displayed a dissociation constant (Kd) of over 80 µM.

B2: human Nrxn1β LNS domain (–S4), wild type (domain or fragment)
chain: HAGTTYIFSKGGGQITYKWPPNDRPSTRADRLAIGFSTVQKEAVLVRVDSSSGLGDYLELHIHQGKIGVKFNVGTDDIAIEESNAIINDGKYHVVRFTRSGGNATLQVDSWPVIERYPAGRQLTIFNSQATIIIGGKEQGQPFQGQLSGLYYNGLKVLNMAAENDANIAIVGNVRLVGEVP
On to B2, for which the Kd is over 34 µM in experiment [1] and 19.3 µM in experiment [2].
